From the DeepSol protein solubility set

assay: soluble on expression in E. coli; label from the status in PepcDB or PDB records

Sequence | soluble on expression in E. coli
MMLEQLIQLKQDLIDGSKVEKPSLDDKQIDEMDILVSEALEFNKELKFKLFNKGFVENVTGRVHYINFEQQKLHVKDQNDNTVYINMNNIIRVIYND | not soluble
MGSDKIHHHHHHARPQEKIKKKEISQSYSVSAGDRLQVENRYGNITVTHWNQNTVAIRVEVECKARSEERAQENLDRIQIETKKIGGIVSAVTTIKKEMNSNSNNESMTINYYIQMPPKLAADLNQKYGNINLPSDNNGNMDIHVKYGNLNAGNFTANAMIEAKYGNIEVGNLQDAQLDLGYVGTAKIRNAKDLTIDSKYSNLDIQDIQSLRMEIKYGNLTIESVSRLDMEIKYSDAKIGTLKDALNVSSLSYSNLKIRNLSPSFSKVNVESHYGNLEVALPAKTSFRIVAENMKYSSCDVNGFNITRKHFDDEDRDKNYTYEINGGKQPTIHFEGNRYGNLKVKAN | not soluble
MNTVRWNIAVSPDVDQSVRMFIAAQGGGRKGDLSRFIEDAVRAYLFERAVE | soluble
MKVIIFGGSGFLGQQIAKILVQRQHQVISVSRHGKPATLSASWSHQVQWVCSDVTHDTNWQEQVQRADWVIDTVGILFENPRKKKTYQRLILTPVKKISSFLAQQKKPAKFLFISANTVPFPLRKYMDAKLAAEELIHQEVAEAVIFYPSLLVGQERTGTILFSKCIYFFKKIPFLKNLFIGYDPVPVAEMAQEIVHVLEGGNSIYTHRRTR | not soluble
MGRAAEVPGPEPGQQEQLVFGSGDAVELSCPPPGGGPMGPTVWVKDGTGLVPSERVLVGPQRLQVLNASHEDSGAYSCRQRLTQRVLCHFSVRVTDAPSSGDDEDGEDEAEDTGVDTGAPYWTRPERMDKKLLAVPAANTVRFRCPAAGNPTPSISWLKNGREFRGEHRIGGIKLRHQQWSLVMESVVPSDRGNYTCVVENKFGSIRQTYTLDVLERSPHRPILQAGLPANQTAVLGSDVEFHCKVYSDAQPHIQWLKHVEVNGSKVGPDGTPYVTVLKTAGANTTDKELEVLSLHNVTFEDAGEYTCLAGNSIGFSHHSAWLVVLPAEEELVE | soluble
MSDRQAALDMALKQIEKQFGKGSIMKLGEQAERKVSTVSSGSLALDVALGVGGYPRGRIIEIYGPESSGKTTVSLHAIAEVQRQGGQAAFIDAEHAMDPVYAQKLGVNIDELLLSQPDTGEQGLEIAEALVRSGAVDIIVIDSVAALVPKAEIEGDMGDSHVGLQARLMSQALRKLSGAINKSKTIAIFINQIREKVGVMFGNPETTPGGRALKFYSTVRLEVRRAEQLKQGNDIVGNKTKVKVVKNKVAPPFRVAEVDIMYGEGISREGEILDMASELDIVQKSGAWYSYNEERLGQGRENSKQFLKENTDLREEIAFFIREHHGISEDSGAEGMEDPNLLD | not soluble
MPVNIPPLLPEQLLPIPGLSLGTAEASIKRPGRKDILVITLAENTRVAGVFTRNRFCAAPVTVARSHLTGSLPIRALVINTGNANAGTGQSGIDHAHATCASLARLIGCQTQQVLPFSTGVIMEPLPVEKIITHLPQALANLAPDNWFAAAQAIMTTDIVPKGVSRQIQINGTTVTITGIAKGSGMIHPNMATMLGYIATDAAVTQPLLDDLVRYATDRSFNCVTVDGDTSTNDALILMATGQAGNTPITVSTDPAFISLQAAITEVAALLAQMIVRDGEGATKFITVQVESGKTREECTKVAYAIAHSPLIKTACFASDPNLGRILAAIGYAGIEDLDVNLVQLYLGNILVAEHGGRAASYREEDGQRIMQAPEITIQVKLNRGNASTTVWTCDLSYDYVKINADYRSLEHHHHHH | not soluble
MTEKGRAIEEESFRIVDQEAGPHGFSPLEWPVVRRMIHATADFEYKALTRFSQGAVEAGLKAIQAGARILVDARMIACGLNPERLRLFGNEVVELLAHPEVVARAKATGGTRAEAAVAYAWEKGLLDGAIVGVGNAPTFLLALVEAIRQGARPALVLGMPVGFVNVLEAKRALMEAPVPWIVTEGRKGGSTLVVAALHALIRLAADGGVDTSRAYREG | soluble
MSLNSSEHKIRITPLGGLGEIGGNISVFETNKDAIIVDIGMSFPDGTMHGVDIIIPDFDYVRKIKDKIRGIVITHAHEDHIGAVPYFFKEFQFPIYATPLALGMISNKFEEHGLKAERKWFRPVEKRRVYEIGEFDIEWIHITHSIIDASALAIKTKAGTIIHTGDFKIDQTPIDGYPTDLGRLAYYGEEGVLCLLSDSTNSYKEGYTKSESSVGLTFDQIFARTKGRVIMSTFSSNIHRVYQAITYGLKYGRKVCVIGRSMERNLYTTMELGYIKLDRKIFIDADEVSKYKDNEVLIVTTGSQGETMSALYRMATDEHKFIKIKPTDQVIISAKAIPGNEASVSAVLDYLLKAGAKVAYQEFSEIHVSGHASIEEQKLMLTLTKPKFFLPVHGEYNHITKHKETAMKCGIPERNIYLMSDGDQVELEGHHHHHH | soluble
MWITQEITPYLRKEYTIEAKLLDVRSEHNILEIFKSKDFGEIAMLNRQLLFKNFLHIESELLAHMGGCTKKELKEVLIVDGFDLELAHQLFKYDTHIDFVQADEKILDSFISFFPHFHEVKNNKNFTHAKQLLDLDIKKYDLIFCLQEPDIHRIDGLKRMLKEDGVFISVAKHPLLEHVSMQNALKNMGGVFSVAMPFVAPLRILSNKGYIYASFKTHPLKDLMTPKIEALTSVRYYNEDIHRAAFALPKNLQEVFKDNIKS | soluble
MSLSTPIQAEPPNLSLIRKEIKNYYDSGLYYHELERTIKLAQEYIHQQYLINKNNKHPQKLAIVLDIDETSLSNYDKMVKRDFTGSKEQIHKEILAANSPAIKPMLTLYKNALKQGIKVFFVTGRQESERDATRANLIKAGYTKWAGLYLRPNGYSSPSIIPFKSKAREMIAKKGYTIIASIGDQCSDIQGGYTKKGFKLPNPFYYLPEGHHHHHH | soluble
MSLSNAVAQDLMTIADIVEATTTAPIPFHITAFDGSFTGPEDAPYQLFVANTDAVSYIATAPGDLGLARAYLMGDLIVEGEHPGHPYGIFDALKEFYRCFKRPDASTTLQIMWTLRKMNALKFQEIPPMEQAPAWRKALINGLASRHSKSRDKKAISYHYDVGNEFYSLFLDDSMTYTCAYYPTPESSLEEAQENKYRLIFEKLRLKEGDRLLDVGCGWGGMVRYAAKHGVKAIGVTLSEQQYEWGQAEIKRQGLEDLAEIRFMDYRDVPETGFDAISAIGIIEHIGVNNYPDYFELLSSKLKTGGLMLNHSITYPDNRPRHAGAFIDRYIFPDGELTGSGTLIKHMQDNGFEVLHEENLRFDYQRTLHAWCENLKENWEEAVELAGEPTARLFGLYMAGSEWGFAHNIVQLHQVLGVKLDEQGSRGEVPERMWWTEGHHHHHH | soluble
MGSDKIHHHHHHMLTPIPQIQHLFATNRRSARWLQLAFLLMALYYAPFSHAACTTPPSNTVLGPYGSSVVGVNGTPQVVASGSGFRCTGSVLSLASTNTITATIQSDSNPSGTTMRMRRGTTTDYVPYSLCMDSGCGTLYNINSTYTWSRTTFLDILGLFNSTDGTMPIYIRTSIGSNVSAGTYTDTVTIKWDYRLCALGILGLCSYDEGSTTSTLNITMTITNDCQITSAPNISFGTAAFPANFAAVNNNLGVRCTLLGAYTVKLVSTHPDDANWRRMTATVGSTPYYLQYQLYRTGNIAWTETNDYSGAGTGITQNIPYTARINASQASKPEGTYKDTVTINVTIN | not soluble
MGSDKIHHHHHHMRRSDGRLLKSLSPFVRIIPHIMTKRNDAQNFYKQVVAVDKIDQYIKEKKDQGIRLNYLHLFIAVYVRVLAQRPQLNRFIMNNKIYTRYDIRISMAIKRLLKDDGEETTVKFLFSGLESIEEIVKIVDQTIEEGCAAGAANEVDTIAQRIMALPNSQVKLLVGTLKWMDRHNLLPKKIIEASPFHTSLFFTYLKSINLDFIYHHLYDFGTTGIFVALGKSKKLPVVEEDQVVVKKCCEIGYVLDERICDGLYYSNSFKLVKKYLANPYLLDERLEKVEEDVN | not soluble
MRGSHHHHHHGLVPRGSMIRTMLQGKLHRVKVTHADLHYEAGSCAIDQDFLDAAGILENEAIDIWNVTNGKRFSTYAIAAERGSRIISVNGAAAHCASVGDIVIIASFVTMPDEEARTWRPNVAYFEGDNEMKRTAKAIPVQVA | soluble
MQALYQLSATGAQQQNQQIPIGLSNSLLYQQLAAHQQIAAQQHQQQLAVSAAHQTQNNIMLATSAPSLINHMENSTDGKVKDDPNSDYDLQLSIQQQLAAAAQAAQMGQTQIGPQIVGQQGQPVVATTAGSTNGSAAVTQPDPSTSSGPDGPKRLHVSNIPFRFRDPDLKTMFEKFGVVSDVEIIFNERGSKGFGFVTMERPQDAERARQELHGSMIEGRKIEVNCATARVHSKKVKPTGGILDQMNPLMAQSALAAQAQMNRALLLRSPLVAQSLLGRGAALIPGMQQPAFQLQAALAGNPLAQLQGQPLLFNAAALQTNALQQSAFGMDPAAVQAALLANEQARFQLAAAAAQGNEYIMYHQAKQQELPGRIPSSGNASAFGEQYLSNALATASLPSYQMNPALRTLNRFTPY | not soluble
GMSESCILFFVKYPEPGKVKTRLGEVVGNDKAAMLYRHFVQDMLQGLARLHADLHICYVPGDADLPEKFKAWLGPQHMFAAQQGLDLGERMKHAMQKAFDDGYDRVVLMGSDIPDYPCELVQKALNDLQHYDAAIGPAFDGGYYLIGFRKDSFCPDVFDGIRWGEADVYQPTVEKMRRARLEVLQLPDWNDVDTVWDLNVLYRTNKNSSFRRSSTYALLRENDALIRQYDIDLPGMAPVEKE | soluble
MAHHHHHHMGGAVSFCLQKLNKVSEVEYRPYKEYASYGEQSVPVKGSDDSGRSMIYRMSNTSEEELKRLRDEWYAGGSCLSVLERLCKERGKRTCLAYRKLKTIEKNETTTSDGRKKVLETYVFEPERRTMSYTLFWQNIVDFGRGLHEIGLTKGNTVSIYEETRWQWLCTMYSCWSQGLLVSTVYANLGEDALQYALDEAQCNAIVCNGSKVKDVLAMFKVIEAPKGTKVIYLDELPPSVTSEEYDLYAWSDVVARGKKSEASCRIPSGAESKDELALIMYTSGTTGNPKGVMHTHGSLYCGCMTISQRINDLLGKMKEQEWYCSYLPLAHIMELAVTSVLMMRGVIIGYGSPRTLLDTFAKPCGDLTTYRPLVFVAVPRVFDSMKRAVEEKLPPPGSLKRKIFDKAYEARLKALKKGCDTPFFNKRVFANARKVMGGRVYAMLSGGGPLSESTQEFINVVFGMVIQGWGMTESVACGGIQRTGNLEYNCVGQVLKTAEVQLLDTDEFKHTDQPEPRGEVLLRGPFLFKGYYKQPEQTREALDNDGWLHTGDVASVTPSGTMRIVGRVKALAKNANGEYLALEMLESIYGTNEITVPNGVCVLVHPHRTYIAIIAVTNEKLVKAFMKKHKIENGGFPAILDDAEFLRVVLQSLQKTARDANRCSFEVVQGVKLLNEEWTPENGVLTAAMKLKRRVISENYADFINKLFEKQ | not soluble
MSLKVGERHYHTIWLNEDGRSVDIIDQRWLPHEFRVVTLKTVADVADAIRDMWVRGAPLIGVTAAYGVAIAMAKDPSDAHLDAVWEELNETRPTAINLRWALNAMREYLRPLPEAERADAAYKRAAEIAEEDVELNRAIGANGLDVIREIASKKKPGEPVRILTHCNAGWLATVDYGTATAPIYMAVEEGIPVHVYVDETRPRNQGAYLTAWEMNGHGVPHTLIVDNAGGHLMQHGDIDMVIVGTDRTTANGDVCNKIGTYLKALAARDNDVPFYVALPSPTIDWTVQDGVKEIPIEERTADEVSFVQGRAADGSIASVRISPEGSPAANPAFDVTPARLITGLITERGIATPSPEGLKALFPERSEGHHHHHH | soluble
AHHHHHHGSKTLKVYIPGIKFPSISVTGNYCALNCAHCGRHYLEGMKKITRLNLVDKCVEMEKEGYVGCLLSGGMDSRLKVPLDKFKDEIREIKEKTRLKINAHVGFIDEDDLEWLKYIDVVSLDFVGDNEVIKRVYKIDKTVNDYLKILDILTKERIKVAPHITIGLDFGRIHWEYEAIDLLSEYPIDVLVLNILIPTPGTEMENVKVSMEEALNVVRYAREEFKGELSIGCMRPFGRWREEFDKRAILIGVDRITNPPRKVIEWAKQFRKVEIHFECCVI | not soluble
